1 molecule from US20240279288A1, “APPLICATION OF PLANT JAZ PROTEINS AND DERIVED POLYPEPTIDES IN PREVENTION AND TREATMENT OF HUMAN AND ANIMAL TUMORS” (ANYANG INSTITUTE OF SINO-COTTON INDUSTRY INNOVATION, priority 2021, published 2024) can be followed below.

One experiment concerns the target uPAR (Homo sapiens, UniProt Q03405). As to the kind of experiment: CO-IP experiment with uPAR. The format is binding. As to conditions: in vivo. The procedure: Steps of method of CO-IP experiment: Non-denaturing lysate was added to 293T cell culture plate (Pricella, Cat. No.: CL-0005), and the cells were completely lysed at 4° C. The lysate was centrifuged at 12,000 rpm for 10 min and the supernatant was collected. The corresponding antibody was added to the obtained non-denatured protein solution, which was incubated overnight at 4° C. Pierce™ protein A/G magnetic agarose (Thermo Fisher Scientific, Inc.) were washed with lysis buffer, followed by addition pre-treated beads to the cell lysate, and incubation at room temperature for 2 hours. […] The band of interest was detected by Western blotting.
In order to explore how GhJAZ1 enters cancer cells, we cloned the genes of most tumor surface receptors, including uPAR (NCBI database accession number of NM_002659.4), CCK1R (NP_000721.1), CCK2R (NP_001350481.1), HER2 (NP_004439.2), GRPR (NP_005305.1), MUC1 (NP_001358649.1), VEGFR1 (NP_002010.2), Insulin receptor (NM_000208.4), NTR (XM_011528827.2), PSMA (XM_017017432.1), TFR1 (NM_001128148.3), TFR2 (NM_003227.4), PEPT1 (NM_005073.4), APN (NM_001150.3). […] We detected the interaction of GhJAZ1 with uPA (as the ligand of uPAR, NCBI database accession number of NP_002649.2) and uPAR by yeast two hybrid (the steps of the experiment as Example 3). […]

In another experiment the target is c-Myc (Homo sapiens, UniProt P01106). Description: GST Pull down experiment with c-Myc. The format is binding. Set-up: with the full length of c-Myc and NMYC, respectively; expressed in transfected cells; host or cells: yeast Y2HGold. As to conditions: GST-c-Myc and His-GhJAZ1 fusion proteins. The source says:
Simultaneously, the interaction was validated by GST Pull down experiment. Firstly, pET-30a-GhJAZ1 (the DNA sequence set forth in SEQ ID No. 39 was inserted into pET-30a (+) vector (YouBio, Cat. No.: VT1212) between NdeI and HindIII) and pGEX-4T-1-c-Myc vectors (the CDS sequence of c-Myc (NCBI accession number: NM_002467.6) was inserted into pGEX-4T-1 vector (YouBio, Cat. No.: VT1253) between BamHI and EcoRI) was constructed and transformed into Escherichia coli BL21, which was placed on ice for 30 min, followed by heat shock at 42° C. for 60 s, and then placed on ice for 2 min, and then LB medium was added for cultivation at 37° C. and 200 rpm for 1 h, which was plated onto LB plates containing corresponding antibiotics for cultivation at 37° C. After colonies grown out, monoclonal clones were picked and shaking for incubation and expanded until the medium began to turn slightly white, and then different concentrations of IPTG were added for induction and cultured overnight under different temperatures setting. Subsequently, centrifugation at 5,000 rpm, 4° C. was carried out for 10 min, with addition of an equal volume of PBS (supplemented with PMSF and DTT) for resuspending. […] The supernatant was transferred into a protein purification column, and washed and eluted following incubation, and then proteins were detected and collected dropwise using protein pre-staining solution. […]

Sequence of c-Myc (P01106 whole entry, the tested form may be a part): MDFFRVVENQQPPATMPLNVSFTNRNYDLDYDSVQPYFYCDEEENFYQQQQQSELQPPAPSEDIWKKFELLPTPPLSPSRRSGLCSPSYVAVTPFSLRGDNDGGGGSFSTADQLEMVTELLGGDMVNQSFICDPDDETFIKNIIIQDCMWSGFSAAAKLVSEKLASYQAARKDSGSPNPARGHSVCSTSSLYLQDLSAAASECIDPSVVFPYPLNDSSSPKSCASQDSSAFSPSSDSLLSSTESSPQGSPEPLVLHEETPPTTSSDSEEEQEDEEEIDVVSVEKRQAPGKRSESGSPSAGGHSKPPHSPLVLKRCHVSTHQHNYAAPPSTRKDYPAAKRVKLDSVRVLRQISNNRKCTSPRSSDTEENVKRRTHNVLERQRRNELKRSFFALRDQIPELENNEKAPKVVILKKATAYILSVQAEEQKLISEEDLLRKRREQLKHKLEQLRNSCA
Sequence of uPAR (Q03405 23-305): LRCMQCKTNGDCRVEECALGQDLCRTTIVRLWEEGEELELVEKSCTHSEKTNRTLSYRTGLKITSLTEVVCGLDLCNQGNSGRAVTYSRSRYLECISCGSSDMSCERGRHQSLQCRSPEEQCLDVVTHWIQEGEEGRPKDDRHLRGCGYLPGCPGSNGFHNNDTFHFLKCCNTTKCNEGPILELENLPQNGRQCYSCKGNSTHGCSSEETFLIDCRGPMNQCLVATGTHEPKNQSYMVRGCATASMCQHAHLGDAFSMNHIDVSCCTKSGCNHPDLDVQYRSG

B1: GhJAZ1: cotton JAZ1 protein, gene number Gh_A05G0260, sequence SEQ ID No. 4; prokaryotically expressed with His tag, about 30 KD (protein)
chain: MSSCSESTAMKPARSPEKPSFAQTCNLLSQYLKEKGSFGDLSLGMTCNVEANGTPVVPPPTMNLFPLNDKSDDVCGRNGGNPKNLTSMDLFPQQAGLASKDDSPNKLEPQTAPMTIFYGGQVIVFNDFPANKAKEIMLLASNSSSQSNNSFNPIPFTSSIARSPIESSIGVPPTSKPVHPAQRAVPGDLPIARRASLHRFLEKRKDRITAKAPYQINNSAAAPSLSGDNKSWLGLAAQSP
modifications: His tag
notes: prokaryotically expressed with His tag, about 30 KD
On to B1, for which, in the experiment with uPAR, the “interaction with uPAR” value is listed as “interacts”. Besides, in the experiment with c-Myc, the “interaction with c-Myc” value is “interacted”.
